These results are taken from article PMC4460869.

This assay has as its target GST-tagged BmAPN4 (silkworm aminopeptidase N 4) (Bombyx mori).

Regarding “trypsin-activated parasporal crystal toxin (PC) from Bacillus bombysepticus (domain or fragment)”, the proportion of viable BmAPN4-expressing Sf9 cells after PC, counted in 50 optical fields was 15.8% and the release of total intracellular LDH from BmAPN4-transfected Sf9 cells into the medium after trypsin-activated PC, 6 h; untransfected Sf9 cells not affected was found to be 35.3%.
